Results: paper PMC8954249, “The C-Terminal Domain of Liquorilactobacillus nagelii Dextransucrase Mediates the Production of Larger Dextrans Compared to Liquorilactobacillus hordei” (Gels, 2022)

Legend:
dsr3510ΔC-term = target: T1, dsr3510ΔC-term (Liquorilactobacillus nagelii, UniProt A0A3Q8CN51); experiment: Michaelis-Menten fit, released fructose (D-fructose/D-glucose assay kit); assay type: biochemical; conditions: pH 5.0, 30 °C, 0.05 M sodium acetate, 1 mM CaCl2; crude enzyme extract, 2500 µg/mL protein
T1 construct: gene BSQ50_03510
Description: Michaelis-Menten fit, released fructose (D-fructose/D-glucose assay kit) on dsr3510ΔC-term

[1] = substrate: OC[C@H]1O[C@@](CO)(O[C@H]2O[C@H](CO)[C@@H](O)[C@H](O)[C@H]2O)[C@@H](O)[C@@H]1O; experiment: as above; assay type: biochemical, Liquorilactobacillus nagelii; conditions: pH 5.0, 30 °C, 0.05 M sodium acetate, 1 mM CaCl2, crude enzyme extract, 500 µg/mL protein
Description: Michaelis-Menten fit, released fructose (D-fructose/D-glucose assay kit) on dsr3510 (full-length L. nagelii TMW 1.1827 dextransucrase)

OC[C@H]1O[C@@](CO)(O[C@H]2O[C@H](CO)[C@@H](O)[C@H](O)[C@H]2O)[C@@H](O)[C@@H]1O [sucrose]
Km (dsr3510ΔC-term): 12.6 ± 0.73 mM

B1: dsr3510 (full-length L. nagelii TMW 1.1827 dextransucrase) (Liquorilactobacillus nagelii) (protein)
chain: NVKISADSTPQNVVEQSSSSNDSSSNSSSSSKTSSSSKVNTDQVNEDTSSSITKENNISAMPKKQTQLTTATTAADKVTQTTDTSATTTAATNQQKNNQVESSSQSSSEQASSTISNNTTVSNTDSQQSSSQVANVTGGKYVDSNETWSYVDSQGNKIKGLNKVDGNLQYFDETSGAQIKGEYEKVGETTYYFDKNSGNAIPYTLTSDGKTTAYQADGQPAGAGFFTNQDGEIYYFDADGSYKTGLQTLNGTTYYFDSNGYLSKDTVENVDGKTYYSQADTGKTIQLTSQNLPTQTSTAKEVASFAAHNVAYSYDTKSFENINGYLTADSWYRPTYILNDGQLWIKSTSTDFRPLLMAWWPSKSIEADYLNYMIEQGIISSTRNFSANDDSLVLNSAAQNVQIALEKNLTMTGSVNWLRQIMQSFVKKEAIWNKTSEDPSSDGLSSLQGGFLTYQNSKLTPNANSDYRILGYVPSYIKNSNDKGSEFLLANDIDNSNPVVQAEELNWLYYLMNFGSITADDSSANFDGIRVDAVDNVDADLLKIAADYFKDAYQVNQNDQNADSHLSILEDWSNNDPQYVYDQGANQLTMDDYFVGQMNYSLENAPGSNSKMERFVQWYLINRANDSTEDTAIPNYTFVRAHDSNSQDQIQKAIQAATGGEYGVFTWEQLQQGLTLYYADQASTEKKYNRYNIPSAYAMLLTNKDTVPRVYYGDLYLEGGQYMANKTIYYDTITNLLASRVKYVAGGQTMSVDGNDVLTSVRFGKGAMTASDQGTSETRTEGVGVIVSNNTSLKLKDGDQVVLHMGVAHRNQAYRAAVLTTKDGIINYTSDDNAPIAYTDNNGDLVFTNQNLLINGVEEANTSIQGYANPDVTGYLAVWVPVGAATTQDARTAATTDSSTDGKTLHSNAALDSNVIYEGFSNFISYPDSHDDNTNVVIAKNTDLFKALGITSFELAPQYRTSGDKTFLDSTIDNGYAFTDRYDLGYGTPTKYGTVDDLRNVIKALHAAGIQAIADWVPDQIYNLPTEELVTVNRTDERGNQVASSKIHDLLYVANTIGGGDYQKKYGGAFLEVLETEYPDLFKEIQASTGKTIDPSQKITSWSAEYFNGTNILGRGSDYVLRSDDNQQYFYVGDDSSEVQKFLPASLVAENDRQKYSLGDQSANNYFVQENLNGKWYLIDPLNNQKQTGFQYIPDQIKTVYYNAQGEMQYGQQFLGGHWYLFDSRTGAMETGLQYIGNQHKTVYYNVQGQMQYGQQNVNGHWYLFDSKTGAMKTGWQYISNQHKTVYYNTQGQMQYGQQNVNGHWYLFDSKTGAMKTGWQYISDQHKTVYYNGQGQMQYGQQNVNGHWYLFDSKTGAMKTGWQYISNQHKTVYYNSQGQMVYGKQVIAGKTYYFDTKTGRKL
Km [1]: 10.97 ± 1.56 mM | Vmax [1]: 200 µM/min
